The target in this assay is Light-Harvesting Complex II (LHCII), trimeric (spinach (endogenous in spinach leaves)). Description: native gel or EMSA; non-denaturing Clear Native PAGE (NativePAGE Novex 4-16% Bis-Tris), Coomassie staining; LHCII in α-DDM after sucrose gradient and size-exclusion chromatography. A general note: In EMSA bound probe runs differently from free probe, usually more slowly.

Consider “Light-Harvesting Complex II (LHCII), trimeric”, for which the stoichiometry N (in general, the number of molecules, sites or subunits per partner or assembly) was 3.

(Values after PMC6135645.)
